Test results from the nanobody polyreactivity screen of Harvey et al. (2022).

Test: yeast display, Sf9 membrane polyspecificity reagent, FACS + sequencing; frameworks hold sequencing errors
Method in brief: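 Nanobodies came from a synthetic yeast display library in Saccharomyces cerevisiae BJ5465, induced with galactose for 36–48 hours and stained for 1 hour at 4 °C with 10% biotinylated, detergent-solubilized Sf9 membrane reagent. Cells were enriched on streptavidin microbeads and then FACS-sorted, with low and high (top ~1%) gates set on anti-HA fluorescence for expression and streptavidin fluorescence for reagent binding. Each polyreactivity label reflects the gate a clone came from. Genes were amplified by colony PCR, sequenced by MiSeq 2 × 250 and filtered by CDR length.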

Sequence	polyreactivity (PSR sort gate)
QVQLVESGGGLVQAGASLRLSCAASGRTFGKYAMGWYRQAPGKERELVAAITTRVVITYYADSVKGRFTISRDTAKITVYLQMNSLKPEDSADYYCAAVSIYWGQGTQVTVSS	low polyreactivity
QVQLVESGGGLVQAGGSLRLSCAASGFIFPAYAMGWYRQAPGKERELVAAITSNGGSTYYADSVKGRFTITRDNAKNTVYLQMNSLKPEDTAVYYCNADWYWDYGWVYPEYYYWGQGTQVTVSS	high polyreactivity
QVQLVESGGGLVQAGGSLRLSCAASGFTFPYNAMGWYRQAPGKERELVAAISSGDSTYYADSVKGRFTISRDNAKNTVYLQMKSLKPEDTAVYYCDAYPSLYYTKYDYWGQGTQVTVSS	high polyreactivity
QVQLVESGGGLVQAGGSLRLSCAASGNIFVRYSKGWYRQAPGKERELVAVISSGGSTNYADSVKGRFTISRDNAKNTVYLQMNSLKPEDSAVYYCARKYYSQAISSRKYGYWGQGTQVTVSS	high polyreactivity
QVQLVESGGGLVQAGGSIRLSCAASGLTLIVNSMGWYRQAPGKERDLVASITIGGTTYADSVKGRFTISRDNAKNTVYLQMNSLKTEVTAVYYCAADYSSFSIDTGYDYWGQGTQVTVSS	low polyreactivity
QVQLVESGGGLVQAGGSLRLSFAASGSISLYYAMGWYRKAPGKETELVAAISTRGGSTYYADSVKGRFTISRDNAKNTVYLQMNSLKPEDTAVYYCAARTRLTADPRYGISSKMYYWGQGTQVTVSS	high polyreactivity
PVQLVESGGGLVQAGGSLRLSCAASGFIYPRYAMGWYRQAPGKEREVVAAISYSGGSTYYADSVKGRFTISRDNAKNTVYLQMNSLKPEDTAVYYCAARLFKDSWMDYWGQGTQVTVSS	high polyreactivity
QVQLVESGGGLVQAGGSLRLSCAASGSNFVVNAMGWYRQAPGKERELVAAITQSGGSTFYADSVKGRFTISRDNAKNTVYLLMNSLKPEDSAVYYWGQGTQVTVSS	low polyreactivity
QVQLVESGGGLVQAGGSLRLSCAASGFTFHSYAMGLYRQAPGKERELVAAISPGATTYYADSVKGRFTISRENANNTVYFKLNSLKPEDTAVYYFAASYQRVRDATVYTIYDYWGQGTQVTVSS	high polyreactivity
QVQLVESGGGLVQAGGSLRLICAASGRIFGPYAMGWYRQAPGKERELVASISYSGGSTYYADSVKGRFTISRDNAKNTVYLQMNSLKPDDTAVYYCAKGGYWRGYNYWGQGTQVTVSS	low polyreactivity
QVQLVESGGGLVQAGGSLRLSCAASGSTLNRNVMGWYRQAPGKERELVAVITYGVGSTYYADSVKGRFTISRDNAKNTVYLQMNSLKPEDTAVYYCNKDPLVFDYWGQGTQVTVSS	low polyreactivity
QVQLVESGGGLVQAGGSLRLSCAASGFTFRAYAMGWYRQAPGKASELVATISGRGGSTYYADSVKGRFPISRDNAKNTVYLQMNSLKPEDTAVYYCARRFWSEYVTGVGGYNFWGQGTQVTVSS	high polyreactivity
QVQLVESGGGLVQAGGSLRLSCAASGIIFLVYARGWYRKAPGKVRELVAGISGSATSTNYADSVKGRFTISRDNAKNTVFLQMNSLKPEDTAVYYCAPEPDHVADSHSGYDYWGQGTQVTVSS	low polyreactivity
QVQLVESGGGLVQAGGSLRLSCAASGRTFFENAKGWYRQAPGKEREFVAAISYNGGSTYYADSVKGRFTISRDNAKNTVYLQMNSLKPEDTAVYYCAADPNYGYDYWGQGTQVTVSS	low polyreactivity
QVQLVESGGGIVQAGCSLRLSCAASGRTFSWNSMGWYRQAPGKERELVAAITYSGGNTYYADSVKGRFSISRDNAKNTVYLQMNSLKQEDTAVYYCAKFGVTGQGSWSQRMGYWGQGTQVTVSS	high polyreactivity
QVQLVESGGGLVQAGGSLRLSCAASGRIFPDYVMGWYRQAPGKEREFVAIISYSGVRTYYADSVKGRFTISRDNAKNTVYLQMNSLKPEDTAVYYCAADFKQKGHRTRTTYWGQGTQVTVSS	high polyreactivity
QVQLVESGGGLVQAGGSLRLSCAPSGSIFYSYAMVWYRQAPGKERELVASISRGGTTYYADSVKGRFTISRDNAKNTVYLQMNSLKPEDTAVYYCAAELSEWTNGFDYWGQGTQVTVSS	high polyreactivity
QVQLVESGGGLVQAGGSLRLSCAASGRTFGGYPMGWYRQAPGKERELVASINSGGSTYYADSVKGRFTISRDNAKNTVYLQMNSLKPEDTAVYYCAKRLGGRTLRKYGYWGQGTQVTVSS	high polyreactivity
QVQLVESGGGLVQAGGSLRLSCAASGFTFRYYAMGWYRQAPGKERELVAAIRRSGGSTYYADSVKGRFTISRDNAKNTVYLQMNSLKPEDTAVYYCAAVGPTYWRGYPSGYDYWGQGTQVTVSS	high polyreactivity
QVKLVESGGGLVQAGGSLRLSCAASGRICLSYTMGWYRQAPGKERELVATIDSGVSTNYADSVKGRFTITRDNAKNTVYVQMNSLKPEDTAVYYGNADGFYSSHGYDYWGQGTQVTVSS	low polyreactivity
QVQLVESGGGLVQAGGSLRLSCAASGRIFHGYAMGWYRQAPGKERELVAVIRSGVNTNYADSVKGRFTISRDNAKNTVYLQMNSLKPEDTAVYYCAVDYTPEDWGDDYWGQGTQVTVSS	low polyreactivity
QVQLVESVGGLLQAGGSLRLSCAASGSTFYNYAMGWYRQAPGKERELVAAIRNGGGTNYADSVKGRFTISRDNAKNTVYLQMNSLKPEDTAVYYCSTRLDWRRTYGYWGQGTQVTVSS	low polyreactivity

Sequence	polyreactivity (PSR sort gate)
QVQLVESGGGLVQAGGSLRLSCAASGRIFGNYAMGWYRQAPGKARELVAAITSGARTYYADSVKGRFTISRDNAKNTVYLQMNSLKPEDTAVYYCAAYHKSYSYRYDYWGQGTQVTVSS	high polyreactivity
QVQLVQSGGGLVQAGGSLRLSCAASGRTFYYAMGWYRQAPGKERELVARITRRGGSTYYADSVKGRFTISRDNAKNTVYLQMNSLKPEDTAVYYCNARWHRYLLATYGYWVQGTQVTVSS	high polyreactivity
QVQLVESGGGLVQAGGSLRLSCAASGYIFFGNAMGWYRQAPGKERELVAAIRWRGTSTYYADSVKGRFTISRDNAKNTVYLQMNSLKPEDTAVYYCARLRTVGGYSKYDYWGQGSQVTVSS	low polyreactivity
QVQLVESGGGLVQAGGSLRLSCAASGRIFFHYAMGWYRQAPGKERELVAVISSSGGITYYADSVKGRFTFSRDNAKNTVYLQMNSLKPEDTAVYYCNTVPRPFDRYGYWGQGTQVTVSS	low polyreactivity
QVQLVESGGGLVQAGGSLRLSCAASGSTLPFNAMGCYRQAPGKERELVAAISSGSSTNYADSVKGRFTISRDNAKNTVYLKMNSLKPEDTAVYYCNARPRANQLGDYYKPGTYDYWGQGTQVTVSS	low polyreactivity
QVQLVESGGGLVQAGGSLRLSCAASGFIFDSYAMGWYRPAPGKERELVATITKGGGRTYYADSVKGRFTISRDNAKNTVYLQMNSLKPEDTAVYYCNARGFSRRKGLDYWGQGTQVTVSS	low polyreactivity
QVQLVESGGGLVQAGGSLRLSCAASGRIFKSNAMGWYRQAPGKERELVASISRSGSTNYADSVKGRFTLSRDNAKNTVYLQMNSLKPEDTAVYYCAKDPDAKGGGYDYWGQGTQVTVSS	low polyreactivity
QDQLVESGGGLVQAGGSLRLSCAASGSTFRWYAMGWYRQAPGKERELVAAIRRIGSRTYADSVKGRFTISRDNAKNTVYLQMNSLKPEDTAVYYCATRYKYTGYDYWGQGTQVTVTS	high polyreactivity
QVQLVESGGGLVQAGGSLRLSCAASGSIFWGYDMGWYRQAPGKERELVARISYSGGSTSYADSVKGRFTISRDNAKNTVYLQMNSLKPEDTAVYYCAADEGGFWWTYPYDSWGQGTQVTVSS	low polyreactivity
QVQLVESGGGLVQAGGSLRLSCAASGSIFSYYVMGWYRQAPGKERELVAVITDRGGRTYYADSVKGRFTISRDNAKNTVYLQMNSLKPEDTAVYYCAADDTPYNSKRFDYWGQGTQVTVSS	high polyreactivity
QVQLVESGGGLVQSVGSLRLSCAASGRSFWINTMGWYRQAPGKERELLAAITSGGSTKYADSVKGRFTISRDNAKNTVYFQMNSLKPEDCAVYYCARRFRPNDVWPSHRGYGYWGQGTQVSVSS	low polyreactivity
QVQLVESGGGLVQAGGSLRLSCAASGRTFQYYAMGWYRQAPGKERELVAAITWTGGSTYYADSVKGRFTISRDNAKNTVYLQKNSLKPEDTAVYYCIARYKTLGSQSRSGPGGKYGYWGQGTQVTVSS	high polyreactivity
QVQLVESGGGLVQAGGSLRLSCAASGRIFAYNAMGLYRQAPGKERELVADISSGGNTYYADSVKGRFTISRDNAKNTVYLQMNSLKPEDTAVYYCAKYTYDYWGQGTQVTVSS	low polyreactivity
QVQLVESGGGLVQAGGSLRLSCAASGRIFVHYASGWYRQAPGKERELVAAISWNGGRTFYADSVKGRFTISRDNAKNTVYLQMNSLKPEDTAVYYCAARSRYSLDYWGQGTQVTVSS	high polyreactivity
QVQLVESGGGLVQAGGSLRLSCAPSGSTYSRYAMGWYRQAPGKERELVAAISRSGGTTNYADSVKWRFTISRDNAKNTVYLQMNSLKPEDTAVYYCAAYLPFRQGRYGYEYWGQGTQVTVSS	high polyreactivity
QVQLVESGGGLVQAGGSLRLSCAASGNTFYGYAMGWYRQAPGKERELVASITLSGDSTYYADSVKGRFTISRDNAMNTVYLQMNSLKPEYTAVYYCAGVYTYPLGYYHYTYDYWGQGTQVTVSS	low polyreactivity
QVQLVESGGGLVQAGGSLRLSCAASGLIFAINAMGWYRQAPGKEREMVAAIRWSGDSTYADSVKGRFTISRDNAKNTVYLQMNSLKREDTAVYYCAADDLLDYDYWGQGTQVTVSS	low polyreactivity
QVQLVESGGGLVQAGGSLRLSCAASGSTFFTNAMGWYRQAPAKERELVAVITKRGGSTYYADSVKGRFTISRDKAKNTVYLQMNSLKPEDTAVYYCAARIPKQQGYGYWGHGTQVTVSS	high polyreactivity
QVQLVESAGRLVQAGGSLRLSCDASGSTFKGYPIGWYRQAPGKERELVAAISRRGGSTYYADSVKGRFTISRDNAKNTVYLQMNSLKPEDTAVYYCAKEGQLRYDYWGQGTQVTVSS	high polyreactivity
QVQLVESGGGLVQAGGSHRLSCAASGRIFRRYAMGWYRQARGQERELDAGITGSGTSTYYADSVKGRFTISRDNAKNTVYLQMNSLKPEDTAVYYCAADRGRGYRYNYWGQGTQVTVSS	high polyreactivity
QDQLVESGGGLVQAGGSLRLSCAASGRTFDTNAMGWYRQAPGKERELVASISWSTGSTYYADSVKGRFTISRDNAKNTVYLQMNSLKPEDTAVYYCAARKWFRYKGRSRDYWGQGTQVTVSS	high polyreactivity
